3 molecules from US20250257130A1 (NONA BIOSCIENCES SUZHOU, published 2025) can be followed below.

The target of test [1] is T1, hu-ROR2-ECD-his (Acrobiosystems RO2-H52E5) (human, UniProt Q01974 34-403).
T1 construct: extracellular domain; bought protein; also called Human ROR2 his-tagged protein; Human ROR2, His Tag
Kind of test: ELISA, plate coated with hu-ROR2-his at 1 µg/mL. The method, then:
1 μg/mL hu-ROR2-ECD-his (Acrobiocystems, RO2-H52E5) was added to the 96-well plate, 100 μL each well, incubated at 4° C. overnight, washing the plates with 1×PBST 3 times, 300 ul/well, blocking the plates with 2% BSA in 1×PBST, 200 ul/well at 37° C. for 1 hour, anti-ROR1 antibodies were serially diluted in staining buffer (PBS containing 2% BSA). Antibody solution was added to the plate and incubates at 37° C. for 1 hour, washing the plates with 1×PBST 3 times, 300 ul/well, adding secondary antibody 100 ul/well and incubate at 37° C. for 1 hour, washing the plates with 1×PBST 3 times, 300 ul/well and then add 100 ul/well TMB for about 5 min, stop the reaction by adding 100 ul/well 2M H₂SO₄, read the plates with Molecular device spectra max plus384 at 450 nm and 570 nm.

In test [2] the target is T2, Human ROR1-ECD-his (Acro Biosystems RO1-H522y) (human, UniProt Q01973 30-406).
T2 construct: extracellular domain; bought protein; also called hROR1-ECD-his; hu-ROR1-ECD-his
Nature of the test: BLI, ROR1-His on HIS1K sensor, antibody in solution. The method, then:
In the example, binding kinetics of anti-ROR1 antibodies to soluble ROR1 protein were analyzed by using Bio-Layer Interferometry (BLI) analysis on Fortebio Octet Red384 instrument (Fortebio).
In BLI analysis, recombinant anti-ROR1 antibodies was serially diluted with 10× kinetics buffer (Fortebio). Human ROR1-His proteins were diluted to 20 nM. Then the diluted antibodies, ROR1 proteins and regeneration buffer (10 mM glycine HCl pH 1.5) were added to 96-well plates (Greiner). Rate constants for association and dissociation were measured using HIS1K sensor (Fortebio). The sensor surface was regenerated after each binding experiment with regeneration buffer. The traces were processed using Octet Data Analysis Software (version 11.0, Pall ForteBio, CA, USA).

The target in test [3] is T3, human ROR1 on cells (HEK293T-hROR1, PANC-1, A549) (human, UniProt Q01973 30-937).
T3 construct: whole, on cells; one molecule for the three cell lines; also called huROR1; cell surface ROR1
Nature of the test: flow cytometry, HEK293T-hROR1 cells. The method, then: (§1) In brief, anti-ROR1 antibodies were serially diluted in staining buffer (PBS containing 2% FBS). Antibody solution was incubated with 1×10⁵ cells at 4° C. for 1 hour. […] After 1-hour incubation at 4° C., cells were washed twice with staining buffer and subjected to flow cytometry. PR000374 (Bench marker 1) and non-relevant IgG isotype control (Crownbio) were used as positive and negative controls, respectively.

Test [4] addresses T3, human ROR1 on cells (HEK293T-hROR1, …). Kind of test: flow cytometry, A549 cells. As to the method: as §1
Test [5] has the same target. Nature of the test: flow cytometry, PANC-1 cells. The method, then:
as §1

Test [6] has the same target. Kind of test: flow cytometry on HEK293T-hROR1 cells, MFI (Mean). As to the method:
(§2) Binding of recombinant anti-ROR1 antibodies to human or cynomolgus ROR1-overexpressing cells was tested by flow cytometry. In this example, ROR1-expressing cell lines are HEK293T cell lines that had been transfected to express human ROR1 on the surface (HEK293T-hu ROR1, KYINNO BIOTECHNOLOGY CO., LTD, Catalog #KC-1018), CHO-K1 cell lines that had been transfected to express cynomolgus ROR1 (CHOK1-cyno ROR1), PANC-1 (ATCC, catalog: CRL-1469) or A549 cell lines (Shanghai Institute of Biochemistry and Cell Biology, Chinese Academy of Sciences).
as §1

The target in test [7] is T4, cynomolgus ROR1 on CHO-K1-cynoROR1 cells (cynomolgus monkey, UniProt A0A2K5WTX7 30-937).
T4 construct: whole, on cells
Nature of the test: flow cytometry, CHO-K1-cynoROR1 cells. The method, then: as §1

Test [8] has as its target T2, Human ROR1-ECD-his (Acro Biosystems …). Nature of the test: ELISA, plate coated with hu-ROR1-his at 1 µg/mL. The method, then:
(§3) Binding of recombinant anti-ROR1 antibodies to hu-ROR1-ECD-his was tested by ELISA. In brief, 1 μg/mL hu-ROR1-ECD-his was added to the 96-well plate, 100 μL each well, incubated at 4° C. overnight, washing the plates with 1×PBST 3 times, 300 ul/well, blocking the plates with 2% BSA in 1×PBST, 200 ul/well at 37° C. for 1 hour, anti-ROR1 antibodies were serially diluted in staining buffer (PBS containing 2% BSA). Antibody solution was added to the plate and incubates at 37° C. for 1 hour, washing the plates with 1×PBST 3 times, 300 ul/well, adding secondary antibody 100 ul/well and incubate at 37° C. for 1 hour, washing the plates with 1×PBST 3 times, 300 ul/well and then add 100 ul/well TMB for about 5 min, stop the reaction by adding 100 ul/well 2M H₂SO₄, read the plates with Molecular device spectra max plus384 at 450 nm and 570 nm.

Test [9] has the same target. Kind of test: ELISA, coated hu-ROR1-ECD-his. As to the method: as §3
In test [10] the target is T3, human ROR1 on cells (HEK293T-hROR1, …). Kind of test: flow cytometry on PANC-1 cells, MFI (FITC-A Median). As to the method: as §2, §1
Test [11] concerns the target T4, cynomolgus ROR1 on CHO-K1-cynoROR1 cells. Kind of test: flow cytometry, CHO-K1-cynoROR1 cells. The method, then:
as §2, §1
This is another data set of the same source.

For test [12] the target is unchanged. Nature of the test: flow cytometry on CHOK1-cynoROR1 cells, MFI (Mean) [bottom panel, letter not given]. The method, then: as §2, §1

T2 sequence (Q01973 30-406): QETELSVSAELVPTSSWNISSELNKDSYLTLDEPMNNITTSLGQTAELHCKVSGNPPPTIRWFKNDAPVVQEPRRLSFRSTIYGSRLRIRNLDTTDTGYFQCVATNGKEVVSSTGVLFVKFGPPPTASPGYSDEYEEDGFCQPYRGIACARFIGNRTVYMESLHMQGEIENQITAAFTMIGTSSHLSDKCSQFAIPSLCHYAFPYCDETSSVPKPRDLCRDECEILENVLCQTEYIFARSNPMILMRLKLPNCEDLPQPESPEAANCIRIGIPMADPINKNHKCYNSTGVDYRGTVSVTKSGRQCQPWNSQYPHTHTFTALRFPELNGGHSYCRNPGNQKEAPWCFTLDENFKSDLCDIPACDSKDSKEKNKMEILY
T3 sequence (Q01973 30-937): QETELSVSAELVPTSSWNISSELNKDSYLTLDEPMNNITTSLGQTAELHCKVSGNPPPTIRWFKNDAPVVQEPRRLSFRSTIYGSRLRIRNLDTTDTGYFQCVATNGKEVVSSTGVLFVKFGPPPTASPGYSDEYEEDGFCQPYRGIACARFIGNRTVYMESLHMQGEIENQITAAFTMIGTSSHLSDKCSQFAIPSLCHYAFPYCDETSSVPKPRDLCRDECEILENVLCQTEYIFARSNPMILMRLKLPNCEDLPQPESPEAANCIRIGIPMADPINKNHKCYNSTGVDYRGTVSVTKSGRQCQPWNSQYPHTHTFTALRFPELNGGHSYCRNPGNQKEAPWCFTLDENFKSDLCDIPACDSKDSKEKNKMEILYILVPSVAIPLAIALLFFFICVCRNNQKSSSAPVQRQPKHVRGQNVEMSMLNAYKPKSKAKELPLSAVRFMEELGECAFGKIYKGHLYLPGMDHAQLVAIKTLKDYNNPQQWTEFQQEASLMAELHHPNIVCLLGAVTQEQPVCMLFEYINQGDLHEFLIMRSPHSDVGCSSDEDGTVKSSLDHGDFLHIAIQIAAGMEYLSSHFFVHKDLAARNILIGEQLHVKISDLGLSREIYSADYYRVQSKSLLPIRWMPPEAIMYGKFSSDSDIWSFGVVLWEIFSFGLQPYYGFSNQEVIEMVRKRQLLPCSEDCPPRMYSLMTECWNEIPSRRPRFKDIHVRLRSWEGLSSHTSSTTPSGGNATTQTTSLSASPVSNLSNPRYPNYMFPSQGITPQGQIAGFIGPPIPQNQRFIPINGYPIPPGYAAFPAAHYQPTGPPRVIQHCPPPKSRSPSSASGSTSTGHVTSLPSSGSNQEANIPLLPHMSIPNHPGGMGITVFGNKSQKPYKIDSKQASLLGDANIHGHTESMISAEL
T1 sequence (Q01974 34-403): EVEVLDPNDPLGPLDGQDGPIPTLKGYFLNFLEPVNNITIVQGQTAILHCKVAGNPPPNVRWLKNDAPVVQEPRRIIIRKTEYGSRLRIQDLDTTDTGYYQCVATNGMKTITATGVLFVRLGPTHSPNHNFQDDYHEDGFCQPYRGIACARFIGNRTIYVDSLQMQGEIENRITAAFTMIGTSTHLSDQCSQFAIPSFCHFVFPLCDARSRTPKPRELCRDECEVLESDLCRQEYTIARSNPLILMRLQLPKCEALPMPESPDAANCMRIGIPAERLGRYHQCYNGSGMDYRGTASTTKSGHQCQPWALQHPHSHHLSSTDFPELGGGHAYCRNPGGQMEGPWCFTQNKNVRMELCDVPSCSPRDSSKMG

B1: PR303147 (antibody, human IgG1, V domains shown)
VH: EVQLVESGGGLVQPGGSLRLSCAASGFTFSNFWMYWVRQAPGKGLVWVSRINSDGSSTNYADSVKGRFTISRDNAKNTLYLQMNSLRVEDTAVYSCAREGSGWYEDFDYWGQGTLVTVSS
notes: HCAb (heavy chain-only, human IgG1 Fc), no light chain
On to B1, for which, in test [1], the binding result is listed as “no binding (tested: about 15 µg/ml)”. In test [2], binding was put at a Kd of 11.2 nM. In [2], this molecule had a koff of 0.0165 s⁻¹. The kon in test [2] was 1.47e+06 M⁻¹ s⁻¹. Also, the EC50 in test [3] came to 0.325 µg/mL; in [4], 6.46 µg/mL; in test [5], 7.77 µg/mL; in [7] it was 1.26 µg/mL; in [9], 0.023 µg/mL. Also, the “MAX(MFI)” value came out at 1.46e+07 MFI in [3], 412000 MFI in test [4], 291000 MFI in test [5] and 3.67e+06 MFI in test [7]. Besides, the “EC50 (read off the curve)” value in test [6] is ~0.3 µg/mL; in test [8], ~0.02 µg/mL.

B2: PR005351 (antibody, human IgG1, V domains shown)
VH: QVQLVESGGGLVKPGGSLRLSCAASGFKLSDFQMSWIRQAPGKGLEWVAYIDTNGSTRYYAESVKGRFTLSRDNVKNSLNLQMNGLRAEDTALYYCARIPSYTSSWYEDFDHWGQGTLVTVSS
notes: as for B1
In the case of B2, the “EC50 (read off the curve)” value in test [10] is ~20 nM. The values for the Max in test [5] and in test [11] were 10900 and 27500, respectively.

B3: PR303201 (antibody, human IgG1, V domains shown)
VH: EVQLLESGGGLVQPGGSLRLSCAASGFTFSGNAMSWVRQAPGKGLEWVSAISGSGDKTYYAASVKGRFTISRDNSNNTVYLQMNSLRAEDTAVYYCEKGAFRTTMDYWGQGTLVTVSS
notes: as for B1
For the molecule B3, the binding result in test [1] is “no binding (tested: about 15 µg/ml)”. Besides, the affinity in [2], expressed as Kd, was 4.89 nM. In [2], this molecule registered a koff of 0.00626 s⁻¹. Moreover, the kon in [2] worked out at 1.28e+06 M⁻¹ s⁻¹. In addition, the EC50 came to 0.066 µg/mL in [3], 0.08 µg/mL in test [4], 0.057 µg/mL in test [7] and 0.004 µg/mL in test [9]. In addition, the “MAX(MFI)” value is 1.55e+07 MFI in [3], 1.23e+06 MFI in test [4], 935000 MFI in test [5] and 1.07e+07 MFI in [7]. For the same molecule, the 50% effective concentration (EC50 (read off the curve)) in [6] is ~0.06 µg/mL; in test [8] it was ~0.004 µg/mL; in [12], ~0.06 µg/mL.
